{
  "source": "paper PMC3201864",
  "key": {"CELF1 T187 (RRM1-RRM2) [1]": {"biological_target": "T1, CELF1 T187 (RRM1-RRM2) (Xenopus, UniProt O57406 1-187)", "T1 sequence (O57406 1-187)": "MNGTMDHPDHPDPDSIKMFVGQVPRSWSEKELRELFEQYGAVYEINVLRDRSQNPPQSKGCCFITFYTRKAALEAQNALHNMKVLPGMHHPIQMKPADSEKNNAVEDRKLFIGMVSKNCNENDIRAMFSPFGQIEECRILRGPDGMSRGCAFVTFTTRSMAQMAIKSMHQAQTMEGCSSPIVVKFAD", "test": "ITC"}, "CELF1 T187 (RRM1-RRM2) [2]": {"biological_target": "T1, CELF1 T187 (RRM1-RRM2)", "test": "EMSA"}, "CELF1 T187 (RRM1-RRM2) [3]": {"biological_target": "T1, CELF1 T187 (RRM1-RRM2)", "test": "EMSA", "remark": "listed apart in the source"}, "CELF1 T187 (RRM1-RRM2) [4]": {"biological_target": "T1, CELF1 T187 (RRM1-RRM2)", "test": "gel filtration"}, "CELF1 T187 (RRM1-RRM2) [5]": {"biological_target": "T1, CELF1 T187 (RRM1-RRM2)", "test": "gel filtration", "remark": "listed apart in the source"}, "CELF1 T187 (RRM1-RRM2) [6]": {"biological_target": "T1, CELF1 T187 (RRM1-RRM2)", "test": "gel filtration", "remark": "listed apart in the source"}, "CELF1 RRM1 [7]": {"biological_target": "T2, CELF1 RRM1 (Xenopus, UniProt O57406 1-101)", "T2 sequence (O57406 1-101)": "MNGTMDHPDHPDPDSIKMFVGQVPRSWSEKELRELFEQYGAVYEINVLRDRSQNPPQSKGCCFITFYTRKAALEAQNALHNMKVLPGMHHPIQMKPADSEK", "test": "gel filtration"}, "CELF1 RRM2": {"biological_target": "CELF1 RRM2 (Xenopus, UniProt O57406 108-187)", "sequence (O57406 108-187)": "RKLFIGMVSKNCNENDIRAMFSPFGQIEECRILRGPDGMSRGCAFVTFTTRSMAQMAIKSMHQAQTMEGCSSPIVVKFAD", "test": "gel filtration"}, "CELF1 T187 (RRM1-RRM2) [8]": {"biological_target": "T1, CELF1 T187 (RRM1-RRM2)", "test": "gel filtration", "remark": "listed apart in the source"}, "CELF1 RRM1 [9]": {"biological_target": "T2, CELF1 RRM1", "test": "gel filtration", "remark": "listed apart in the source"}, "CELF1 RRM1 [10]": {"biological_target": "T2, CELF1 RRM1", "test": "ESI-MS"}, "CELF1 T187 (RRM1-RRM2) [11]": {"biological_target": "T1, CELF1 T187 (RRM1-RRM2)", "test": "ESI-MS"}, "CELF1 RRM1 [12]": {"biological_target": "T2, CELF1 RRM1", "test": "NMR titration"}, "CELF1 T187 (RRM1-RRM2) [13]": {"biological_target": "T1, CELF1 T187 (RRM1-RRM2)", "test": "NMR titration"}},
  "data": [
    {"binder": "UGU (ssRNA)", "values": [
      {"measurement": "Kd", "setting": "CELF1 T187 (RRM1-RRM2) [1]", "value": "64 ± 2", "unit": "µM"}
    ]},
    {"binder": "UAUUUAUUUAUUUAU (ssRNA)", "note": "[ARE15]", "values": [
      {"measurement": "binding result", "setting": "CELF1 T187 (RRM1-RRM2) [2]", "value": "no binding"}
    ]},
    {"binder": "UGUCUGUCUGUCUGU (ssRNA)", "note": "[GUCU15]", "values": [
      {"measurement": "binding result", "setting": "CELF1 T187 (RRM1-RRM2) [3]", "value": "binds"}
    ]},
    {"binder": "UGUUUGUUUGUUUGU (ssRNA)", "note": "[EDEN15]", "values": [
      {"measurement": "binding result", "setting": "CELF1 T187 (RRM1-RRM2) [4]", "value": "binds"}
    ]},
    {"binder": "UGUGUGUGUGUGUGU (ssRNA)", "note": "[UG15 (GU15 in text)]", "values": [
      {"measurement": "binding result", "setting": "CELF1 T187 (RRM1-RRM2) [5]", "value": "binds"}
    ]},
    {"binder": "CUGCUGCUGCUGCUG (ssRNA)", "note": "[CUG15]", "values": [
      {"measurement": "binding result", "setting": "CELF1 T187 (RRM1-RRM2) [6]", "value": "binds"}
    ]},
    {"binder": "UAUUUAU (ssRNA)", "note": "[ARE7]", "values": [
      {"measurement": "binding result", "setting": "CELF1 RRM1 [7]", "value": "no binding"},
      {"measurement": "binding result", "setting": "CELF1 RRM2", "value": "no binding"},
      {"measurement": "binding result", "setting": "CELF1 T187 (RRM1-RRM2) [8]", "value": "no binding"}
    ]},
    {"binder": "UGUUUAU (ssRNA)", "note": "[EDEN7m]", "values": [
      {"measurement": "binding result", "setting": "CELF1 RRM1 [9]", "value": "binds"}
    ]},
    {"binder": "UUGUUUGUU (ssRNA)", "note": "[EDEN9]", "values": [
      {"measurement": "binding result", "setting": "CELF1 RRM1 [10]", "value": "binds"}
    ]},
    {"binder": "UGUUUGUUUGU (ssRNA)", "note": "[EDEN11 (GRE)]", "values": [
      {"measurement": "binding result", "setting": "CELF1 T187 (RRM1-RRM2) [11]", "value": "binds"}
    ]},
    {"binder": "CUGCUG (ssRNA)", "note": "[CUG2]", "values": [
      {"measurement": "binding result", "setting": "CELF1 RRM1 [12]", "value": "binds"}
    ]},
    {"binder": "UGUUUUUGU (ssRNA)", "note": "[EDEN3U (x=3)]", "values": [
      {"measurement": "binding result", "setting": "CELF1 T187 (RRM1-RRM2) [13]", "value": "binds"}
    ]}
  ]
}
